Source: publication doi:10.1101/749432 (2019)

B1: endothelial protein C receptor (EPCR), residues 16 to 210, biotinylated on the BAP tag (receptor)
chain: FCSQDASDGLQRLHMLQISYFRDPYHVWYQGNASLGGHLTHVLEGPDTNTTIIQLQPLQEPESWARTQSGLQSYLLQFHGLVRLVHQERTLAFPLTIRCFLGCELPPEGSRAHVFFEVAVNGSSFVSFRPERALWQADTQVTSGVVTFTLQQLNAYNRTRYELREFLEDTCVQYVQKHISAENTKGSQTSRSYTS

Legend:
[1] = biological target: B1; test: SPR
[2] = biological target: HB3var03 CIDRα1.4 domain (E. coli, refolded) (Plasmodium falciparum); test: SPR; wild type, data from ref. 8

Binder | koff [1] | Kd [2] | koff [2]
synthetic binder (cys2 variant of design 469) (designed binder, biotin on the BAP tag (BirA)) NNWEQQKKNIEDDLDRYKKRAEELRKEAEKARKEARKTEDPTEEAKKEWEKRCKELEERARKLEDEAKDRVNDLFDSNFFQVIYSGDNDEEEWKKEKDRAEKEIEEWFKRIKEKCEEIKKRLEQ | 0.000131 s⁻¹ | – | –
B1 | – | 0.4 nM | 0.000197 s⁻¹
